Assay results from patent publication US7598033B2, “Method and devices for running reactions on a target plate for MALDI mass spectrometry” (University of Pennsylvania, priority 2003, dated 2009).

Tests used:
[1] = Fluorogenic substrate microarray: tPA on tPA, thrombin and Xa substrates; format: biochemical; conditions: aerosol deposition of pure tPA 10 μM
Protocol: (§1) Well characterized for over 30 years, serine proteases of the coagulation pathway in plasma were selected as a system in which to monitor the delivery of complex enzyme fluids to the microassay. Fluorogenic substrates in DMSO/glycerol were assayed to a glass slide.
(§2) After spray application, thrombin caused a 65-fold increase in fluorescence activity after conversion of the boc-VPR-MCA substrate. […] Aerosol deposition of pure tPA (10 μM) to a sensing array caused significant cleavage of the tPA, thrombin and Xa substrates, resulting in fluorescence that was 18- to 20-fold above background.

[2] = system: fluorogenic substrates on the array; assay: Microarray assay of diluted recalcified citrated plasma with added plasmin; format: biochemical, human
Protocol: as §1
The microarray detected the modest activation of the coagulation pathway in recalcified diluted plasma due to low level factor Xa and thrombin activity (Butenas, 1997; Rand, 1996). Since corn trypsin inhibitor was not present to inhibit factor XIIa (Rand, 1996), moderate activation of the contact system and kallikrein generation was detected by conversion of the kallikrein substrate.
[…] This plasmin activity was detected by a strong signal in the plasmin substrate spot. […] Plasmin is also a potent activator of factor XU to factor XUa which can in turn convert prekallikrein to kallilkrein.

[3] = Fluorogenic substrate microarray, aerosol deposition of enzyme: boc-VLK-MCA; format: biochemical; conditions: pure plasmin 1 μM deposited on the array
[4] = Fluorogenic substrate microarray: plasmin on thrombin and kallikrein substrates; format: biochemical; conditions: pure plasmin 1 μM
Protocol: as §1, §2

[5] = Morita, 1977; cited from earlier work

B1: tPA: pure tPA delivered by aerosol deposition to a sensing array (protein, UniProt P00750 36-562, looked up)
Tissue-type plasminogen …: SYQVICRDEKTQMIYQQHQSWLRPVLRSNRVEYCWCNSGRAQCHSVPVKSCSEPRCFNGGTCQQALYFSDFVCQCPEGFAGKCCEIDTRATCYEDQGISYRGTWSTAESGAECTNWNSSALAQKPYSGRRPDAIRLGLGNHNYCRNPDRDSKPWCYVFKAGKYSSEFCSTPACSEGNSDCYFGNGSAYRGTHSLTESGASCLPWNSMILIGKVYTAQNPSAQALGLGKHNYCRNPDGDAKPWCHVLKNRRLTWEYCDVPSCSTCGLRQYSQPQFRIKGGLFADIASHPWQAAIFAKHRRSPGERFLCGGILISSCWILSAAHCFQERFPPHHLTVILGRTYRVVPGEEEQKFEVEKYIVHKEFDDDTYDNDIALLQLKSDSSRCAQESSVVRTVCLPPADLQLPDWTECELSGYGKHEALSPFYSERLKEAHVRLYPSSRCTSQHLLNRTVTDNMLCAGDTRSGGPQANLHDACQGDSGGPLVCLNDGRMTLVGIISWGLGCGQKDVPGVYTKVTNYLDWIRDNMRP
Q: For B1, which “fluorescence above background from cleavage of the tPA, thrombin and Xa substrates” value [1] is on record?
A: Its value is 18- to 20 fold.

B2: plasmin: pure plasmin, serine protease deposited on the array (protein, UniProt P00747 20-580; P00747 581-810, looked up)
Plasmin heavy chain A: EPLDDYVNTQGASLFSVTKKQLGAGSIEECAAKCEEDEEFTCRAFQYHSKEQQCVIMAENRKSSIIIRMRDVVLFEKKVYLSECKTGNGKNYRGTMSKTKNGITCQKWSSTSPHRPRFSPATHPSEGLEENYCRNPDNDPQGPWCYTTDPEKRYDYCDILECEEECMHCSGENYDGKISKTMSGLECQAWDSQSPHAHGYIPSKFPNKNLKKNYCRNPDRELRPWCFTTDPNKRWELCDIPRCTTPPPSSGPTYQCLKGTGENYRGNVAVTVSGHTCQHWSAQTPHTHNRTPENFPCKNLDENYCRNPDGKRAPWCHTTNSQVRWEYCKIPSCDSSPVSTEQLAPTAPPELTPVVQDCYHGDGQSYRGTSSTTTTGKKCQSWSSMTPHRHQKTPENYPNAGLTMNYCRNPDADKGPWCFTTDPSVRWEYCNLKKCSGTEASVVAPPPVVLLPDVETPSEEDCMFGNGKGYRGKRATTVTGTPCQDWAAQEPHRHSIFTPETNPRAGLEKNYCRNPDGDVGGPWCYTTNPRKLYDYCDVPQCAAPSFDCGKPQVEPKKCPGR
Plasmin light chain B: VVGGCVAHPHSWPWQVSLRTRFGMHFCGGTLISPEWVLTAAHCLEKSPRPSSYKVILGAHQEVNLEPHVQEIEVSRLFLEPTRKDIALLKLSSPAVITDKVIPACLPSPNYVVADRTECFITGWGETQGTFGAGLLKEAQLPVIENKVCNRYEFLNGRVQSTELCAGHLAGGTDSCQGDSGGPLVCFEKDKYILQGVTSWGLGCARPNKPGVYVRVSRFVTWIEGVMRNN
modifications: plasmin
notes: pure plasmin, serine protease deposited on the array
Q: With B2 as the molecule, how does the “signal in the plasmin substrate spot” value ([2]; plasmin 0.43 μM final concentration added to diluted recalcified citrated plasma) read?
A: The value was “strong signal”.

Q: What about the “cleavage of substrates on the array” value ([2]; plasmin 2.14-1 μM final concentration added to plasma) of the same molecule?
A: Its value is “significant cleavage of each substrate”.

Q: What about the “signal for the boc-VLK-MCA substrate above background” value [3] of the same molecule?
A: Its value is 25 fold.

Q: What about the “activity on the thrombin and kallikrein substrates” value [4] of the same molecule?
A: Its value is “detectable activity”.

Q: And the “reported activity on boc-VPR-MCA and Z-FR-MCA” value [5]?
A: The value was “activity”.

Q: And the “reported activity on tPA and factor Xa substrates” value [5]?
A: The value was “no detectable activity”.
